Kd data for one molecule are collected here from publication PMC6393306.

Where two headings read alike, the source gives them in different places.

For series [1], the target named is T1, GEN1 1-527 (dimer) (Homo sapiens, UniProt Q17RS7 1-527).
T1 sequence: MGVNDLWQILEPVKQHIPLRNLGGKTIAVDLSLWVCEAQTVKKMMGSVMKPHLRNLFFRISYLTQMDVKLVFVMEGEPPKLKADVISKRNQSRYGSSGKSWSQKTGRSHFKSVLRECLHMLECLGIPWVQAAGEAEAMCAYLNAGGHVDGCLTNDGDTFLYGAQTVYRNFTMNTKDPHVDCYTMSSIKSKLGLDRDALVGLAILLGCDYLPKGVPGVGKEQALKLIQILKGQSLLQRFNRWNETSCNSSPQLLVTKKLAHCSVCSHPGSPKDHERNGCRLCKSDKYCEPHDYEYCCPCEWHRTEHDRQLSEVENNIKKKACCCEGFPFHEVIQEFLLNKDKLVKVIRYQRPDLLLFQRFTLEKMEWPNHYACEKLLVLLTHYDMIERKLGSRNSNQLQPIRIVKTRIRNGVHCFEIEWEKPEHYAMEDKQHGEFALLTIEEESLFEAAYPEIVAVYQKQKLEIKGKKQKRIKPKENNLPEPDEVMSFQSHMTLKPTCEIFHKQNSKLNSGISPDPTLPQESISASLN
As to the kind of experiment: EMSA. On the technique in general: A gel shift assay detects complexes by their altered migration in electrophoresis.

In series [2] the target is T1, GEN1 1-527 (dimer). Nature of the series: EMSA. The source holds these as a separate data set.

B1: X0 (Cy5, EMSA) (structured_DNA)
DNA 1: ACGCTGCCGAATTCTACCAGTGCCTTGCTAGGACATCTTTGCCCACCTGCAGGTTCACCC
DNA 2: GGGTGAACCTGCAGGTGGGCAAAGATGTCCATCTGTTGTAATCGTCAAGCTTTATGCCGT
DNA 3: ACGGCATAAAGCTTGACGATTACAACAGATCATGGAGCTGTCTAGAGGATCCGACTATCG
DNA 4: CGATAGTCGGATCCTCTAGACAGCTCCATGTAGCAAGGCACTGGTAGAATTCGGCAGCGT
The Kd is a measure of binding affinity in units of concentration. A lower Kd goes with a tighter complex. Regarding B1, the dissociation constant (Kd) with GEN1 1-527 (dimer) [1] worked out at 23.4 nM; with GEN1 1-527 (dimer) [2], 6.23 nM.
